In the data set the test system is OmpR-VP64. Put plainly: Screen of EnvZ variants for kinase and phosphatase activity on OmpR-VP64-driven output. The format is cell-based. The conditions noted are these: FIG. 3B. The text has this: The well-studied EnvZ-OmpR system was used to develop feedback controllers of the present disclosure, using separate kinase and phosphatase variants of EnvZ, and an OmpR-VP64 fusion protein as an activator for promoting transcription of a reporter protein. Kinase and phosphatase variants of the HK EnvZ through mutation and/or truncation (FIG. 3A). […] However, the phosphatase EnvZ activity was weak compared to the EnvZm2 kinase. To create a stronger phosphatase, a DHp domain of EnvZ was fused to a leucine zipper GCN4 domain, with GCN4 at the N-terminus and EnvZm2 at the C-terminus, to lock the DHp domain of an HK into fixed conformations (FIG. 3C). […]
The phosphatase regulator was further modified to allow tunability by use of a small molecule. […] Expression of both proteins from the same nucleic acid and translation from the same mRNA, such as by separating coding sequences by a 2A motif or open reading frames IRES cassette, ensures maximal coupling of transcription and translation of the two proteins. […]
For quantifying the effects of EnvZ variants and perturbations, fold-changes were calculated by dividing the median output level of each sample by that of the equivalent sample in the absence of the EnvZ variant or perturbation. […]

B1: EnvZm2: kinase+/phosphatase− mutant of EnvZ containing a T247A mutation (SEQ ID NO: 3) (protein)
chain: MRRLRFSPRSSFARTLLLIVTLLFASLVTTYLVVLNFAILPSLQQFNKVLAYEVRMLMTDKLQLEDGTQLVVPPAFRREIYRELGISLYSNEAAEEAGLRWAQHYEFLSHQMAQQLGGPTEVRVEVNKSSPVVWLKTWLSPNIWVRVPLTEIHQGDFSPLFRYTLAIMLLAIGGAWLFIRIQNRPLVDLEHAALQVGKGIIPPPLREYGASEVRSVTRAFNHMAAGVKQLADDRTLLMAGVSHDLRAPLTRIRLATEMMSEQDGYLAESINKDIEECNAIIEQFIDYLRTGQEMPMEMADLNAVLGEVIAAESGYEREIETALYPGSIEVKMHPLSIKRAVANMVVNAARYGNGWIKVSSGTEPNRAWFQVEDDGPGIAPEQRKHLFQPFVRGDSARTISGTGLGLAIVQRIVDNHNGMLELGTSERGGLSIRAWLPVPVTRAQGTTKEG
For B1, the “kinase activity (phosphorylation of OmpR)” value is listed as “particularly effective in phosphorylating OmpR”.

These data come from patent publication US20240018528A1, “A TUNABLE PHOSPHORYLATION-BASED FEEDBACK CONTROLLER OF MAMMALIAN GENE EXPRESSION” (Massachusetts Institute of Technology, priority 2020, published 2024).
